This note sets out measurements from publication PMC3401373, “ATM-Dependent Downregulation of USP7/HAUSP by PPM1G Activates p53 Response to DNA Damage” (Molecular Cell, 2012).

The experiment deals with T1, His-tagged USP7S (Ser18-containing isoform of USP7/HAUSP), purified recombinant (human, UniProt Q93009 1-1102, phosphoserine at 18 as purified from insect cells; not stated whether the phosphorylated or the dephosphorylated form stood in the pull-down of Figure 4D).
T1 construct: USP7 (HAUSP), human, the isoform that contains serine 18 (USP7S); also called pUSP7S; source: recombinant, purified from insect cells
T1 sequence (Q93009 whole entry, canonical isoform): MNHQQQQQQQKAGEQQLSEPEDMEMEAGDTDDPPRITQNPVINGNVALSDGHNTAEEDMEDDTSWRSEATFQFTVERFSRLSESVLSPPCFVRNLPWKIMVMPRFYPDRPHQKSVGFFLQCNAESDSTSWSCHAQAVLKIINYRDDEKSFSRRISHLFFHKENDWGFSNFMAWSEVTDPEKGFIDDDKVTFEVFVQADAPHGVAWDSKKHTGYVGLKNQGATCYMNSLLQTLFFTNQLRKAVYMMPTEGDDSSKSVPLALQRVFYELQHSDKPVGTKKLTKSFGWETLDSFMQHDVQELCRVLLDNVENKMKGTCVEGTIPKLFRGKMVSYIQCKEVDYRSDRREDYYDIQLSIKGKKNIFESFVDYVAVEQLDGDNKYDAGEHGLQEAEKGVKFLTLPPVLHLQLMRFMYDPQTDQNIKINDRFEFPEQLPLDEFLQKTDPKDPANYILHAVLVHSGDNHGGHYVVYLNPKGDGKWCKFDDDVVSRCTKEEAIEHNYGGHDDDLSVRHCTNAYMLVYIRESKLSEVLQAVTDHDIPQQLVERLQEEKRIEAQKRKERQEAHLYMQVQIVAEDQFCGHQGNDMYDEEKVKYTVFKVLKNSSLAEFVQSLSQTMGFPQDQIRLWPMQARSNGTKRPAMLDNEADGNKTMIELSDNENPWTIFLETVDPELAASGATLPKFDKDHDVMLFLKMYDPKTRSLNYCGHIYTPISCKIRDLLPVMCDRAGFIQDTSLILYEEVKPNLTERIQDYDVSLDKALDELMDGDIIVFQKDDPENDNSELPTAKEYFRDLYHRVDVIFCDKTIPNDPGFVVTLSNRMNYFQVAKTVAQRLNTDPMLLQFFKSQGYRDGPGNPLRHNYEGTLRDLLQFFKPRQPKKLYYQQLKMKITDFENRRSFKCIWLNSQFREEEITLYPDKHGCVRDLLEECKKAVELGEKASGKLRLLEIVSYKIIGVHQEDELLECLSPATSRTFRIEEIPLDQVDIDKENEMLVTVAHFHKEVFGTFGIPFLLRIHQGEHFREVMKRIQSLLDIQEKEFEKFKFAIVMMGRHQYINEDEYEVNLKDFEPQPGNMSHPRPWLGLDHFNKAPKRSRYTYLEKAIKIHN
Briefly: pull-down; equal amounts (0.42 pmol) of purified His-tagged USP7S and PPM1G incubated at room temperature for 30 min; USP7S pulled down with magnetic Ni-NTA agarose beads (magnetic beads as mock control); western blot with USP7S and PPM1G antibodies. As to conditions: both partners purified.

B1: PPM1G, purified recombinant (enzyme, human, UniProt O15355 1-546, looked up)
chain: MGAYLSQPNTVKCSGDGVGAPRLPLPYGFSAMQGWRVSMEDAHNCIPELDSETAMFSVYDGHGGEEVALYCAKYLPDIIKDQKAYKEGKLQKALEDAFLAIDAKLTTEEVIKELAQIAGRPTEDEDEKEKVADEDDVDNEEAALLHEEATMTIEELLTRYGQNCHKGPPHSKSGGGTGEEPGSQGLNGEAGPEDSTRETPSQENGPTAKAYTGFSSNSERGTEAGQVGEPGIPTGEAGPSCSSASDKLPRVAKSKFFEDSEDESDEAEEEEEDSEECSEEEDGYSSEEAENEEDEDDTEEAEEDDEEEEEEMMVPGMEGKEEPGSDSGTTAVVALIRGKQLIVANAGDSRCVVSEAGKALDMSYDHKPEDEVELARIKNAGGKVTMDGRVNGGLNLSRAIGDHFYKRNKNLPPEEQMISALPDIKVLTLTDDHEFMVIACDGIWNVMSSQEVVDFIQSKISQRDENGELRLLSSIVEELLDQCLAPDTSGDGTGCDNMTCIIICFKPRNTAELQPESGKRKLEEVLSTEGAEENGNSDKKKKAKRD
notes: Serine/threonine protein phosphatase PPM1G (PP2Cγ), human; also called PP2Cγ; PPM1GGST; source: purified recombinant
As for B1, the binding result is recorded as “binds”.
